Non-standard residues stand in square brackets, D forms with d. No end group written: not given here. pT = C[C@@H](OP(=O)(O)O)[C@H](N)C(=O)O
Tests used:
PIN1 = PIN1 (UniProt Q13526); test: native mass spectrometry, 1:5 protein:peptide; conditions: reference: unphosphorylated peptide; sites T208
PIN1 WW domain = PIN1 WW domain (UniProt Q13526); test: GST pull-down from cell lysate; conditions: reference: myc-RNF168 wild type; sites T208
[1] = target: T1, full-length PIN1 (recombinant, tag cleaved) (UniProt Q13526 1-163); test: native MS; PIN1 2.5 uM and peptide 12.5 uM (1:5 molar ratio) incubated on ice in 100 mM ammonium acetate pH 6.8; nanoelectrospray, positive mode; conditions: both partners purified
T1 construct: peptidyl-prolyl isomerase PIN1, full length; also called recombinant PIN1; tag-cleaved PIN1; source: E. coli Rosetta 2(DE3) pLysS, auto-induction, purified (IMAC), tag cleaved with TEV protease; not shown: His6, N-terminal, cleaved

binding result [1]	Molecule	further results
	RNF168 204-210 (from UniProt Q8IYW5) pT208 peptide	binding against the reference (PIN1): stronger
	RNF168 (from UniProt Q8IYW5) T208A	binding against the reference (PIN1 WW domain): weaker
binds	SDPVTPK (end groups not known; also called non-phosphorylated peptide of the T208 motif; source: synthetic peptide, bought: GenScript Biotech) [unphosphorylated RNF168 peptide S204-K210]	
binds	SDPV[pT]PK (end groups not known; also called phospho-RNF168 peptide; pT208-RNF168 peptide; source: synthetic peptide, bought: GenScript Biotech) [phosphorylated RNF168 peptide S204-K210, SDPV(pT)PK]	

Reference: PMC11997057, “PIN1-SUMO2/3 motif suppresses excessive RNF168 chromatin accumulation and ubiquitin signaling to promote IR resistance” (Nature Communications, 2025)
